{
  "source": "paper PMC11030525",
  "key": {"FKBP4, mouse": {"target": "FKBP4, mouse (UniProt P30416)", "sequence (P30416 whole entry)": "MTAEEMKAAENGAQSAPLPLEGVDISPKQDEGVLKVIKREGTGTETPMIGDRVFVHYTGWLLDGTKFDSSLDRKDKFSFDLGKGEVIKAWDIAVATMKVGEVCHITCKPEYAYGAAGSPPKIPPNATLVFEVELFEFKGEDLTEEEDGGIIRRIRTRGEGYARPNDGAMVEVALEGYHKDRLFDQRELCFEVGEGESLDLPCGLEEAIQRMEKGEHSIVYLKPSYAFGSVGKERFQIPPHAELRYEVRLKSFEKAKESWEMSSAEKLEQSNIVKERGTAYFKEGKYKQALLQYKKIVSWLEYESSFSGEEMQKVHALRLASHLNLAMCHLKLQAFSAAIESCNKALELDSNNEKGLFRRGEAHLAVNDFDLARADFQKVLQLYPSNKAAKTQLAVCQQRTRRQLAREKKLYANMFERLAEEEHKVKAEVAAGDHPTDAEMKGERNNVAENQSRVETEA", "test": "mCherry antibody affinity purification (IP) with SILAC LC-MS", "conditions": "E14 ESCs; AA mutant in light media, EE mutant in heavy media; representative spectrum; mCherry EE:AA = 1.08 in the same panel"}, "AHA1, mouse": {"target": "AHA1, mouse (UniProt Q8BK64)", "sequence (Q8BK64 whole entry)": "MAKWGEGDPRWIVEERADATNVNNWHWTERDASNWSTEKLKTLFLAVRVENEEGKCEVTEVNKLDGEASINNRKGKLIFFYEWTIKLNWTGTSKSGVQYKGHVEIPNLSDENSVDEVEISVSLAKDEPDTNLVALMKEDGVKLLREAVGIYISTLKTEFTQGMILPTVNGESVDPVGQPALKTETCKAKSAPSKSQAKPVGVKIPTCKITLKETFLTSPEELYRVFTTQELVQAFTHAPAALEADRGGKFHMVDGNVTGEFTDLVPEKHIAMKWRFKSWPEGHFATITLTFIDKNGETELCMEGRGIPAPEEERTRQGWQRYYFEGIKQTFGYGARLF", "test": "mCherry antibody affinity purification (IP) with SILAC LC-MS", "conditions": "E14 ESCs; AA mutant in light media, EE mutant in heavy media; representative spectrum; mCherry EE:AA = 1.08 in the same panel"}},
  "data": [
    {"substance": "mCherry-HSP90β-Wild type, P08238 S226E; S255E", "values": [
      {"measurement": "other: SILAC ratio EE:AA", "setting": "FKBP4, mouse", "value": 1.74},
      {"measurement": "other: SILAC ratio EE:AA", "setting": "AHA1, mouse", "value": 1.69}
    ]}
  ]
}
